Laboratory results taken from US20220073604A1 (ARGENX BVBA, published 2022).
Positions count from the first letter of the chain named.

Assays:
[1] = target: T1, human IL-6 (as added in the B9 and 7TD1 bioassays) (human, UniProt P05231 30-212); test: cell-based or functional assay
[2] = target: T1, human IL-6 (as added in the B9 and 7TD1 …); test: cell-based or functional assay; remark: listed apart in the source
[3] = target: T2, bacterially produced human IL-6 (human, UniProt P05231 30-212); test: SPR; purified Fab over biotinylated IL-6 on streptavidin chip
T2 construct: also called bactIL-6; prokaryotic IL-6
Method: From the washing phase the off-rate (kd) was determined, while from the injection phase the on-rate (ka) was calculated using the concentration and off-rate as parameters.

[4] = target: T3, cynomolgus monkey IL-6 (cynomolgus monkey, UniProt P79341 28-212, limits assumed); test: SPR (Biacore), periplasmic Fab
T3 construct: Immobilised on the Biacore chip

[5] = target: T4, eukaryotically produced human IL-6 (human, UniProt P05231 30-212); test: SPR (Biacore), periplasmic Fab
T4 construct: Immobilised on the Biacore chip; also called Euk IL-6; EUK IL-6 (3-1)

[6] = target: T5, bacterially produced human IL-6 (human, UniProt P05231 30-212); test: SPR (Biacore), periplasmic Fab
T5 construct: Immobilised on the Biacore chip; also called BACT IL-6 (2-1); bactIL-6

B1: 111A7_SDM2_M100A (antibody, V domains shown)
VH: EVQLLESGGGLVQPGGSLRLSCAASGFTFSSYAMSWVRQAPGKGPEWVSRISAGGGSTYYGDSVKGRFTISRDNSKNTLYLQMNSLRAEDTAVYYCANRAGWGAGDYWGQGTLVTVSS
VL: QTVVTQEPSFSVSPGGTVTLTCGLSSGSVTASNYPGWYQQTPGQAPRALIYSTNDRHSGVPDRFSGSISGNKAALTITGAQAEDEADYYCALDIGDITEFGGGTQLTVL
- IC50, 7TD1 cells [1]: 1.57 pM
- Potency relative to 68F2, 7TD1 cells [1]: 0.43

B2: 129F2 (germlined variant of 68F2), full-length IgG1 (antibody, V domains shown)
VH: EVQLQESGPGLVKPSQTLSLTCTVSGGSITSRYYAWSWIRQPPGKGLEWIGVIDYDGDTYYSPSLKSRVTISWDTSKNQFSLKLSSVTAEDTAVYYCARDPDVVTGFHYDYWGQGTMVTVSS
VL: QSALTQPPSVSGTPGQTVTISCAGANNDIGTYAYVSWYQQLPGTAPKLMIYKVTTRASGIPDRFSGSKSGNTASLTISGLQSEDEADYYCASYRNFNNAVFGGGTKLTVL
- IC50, 7TD1 proliferation assay, exp 22.06 [2]: 0.703 pM
- IC50, 7TD1 proliferation assay, exp 29.06 [2]: 0.517 pM
- Rel. Potency, 7TD1, exp 29.06 [2]: 1.08

B3: 127F1 (germlined variant of 68F2), full-length IgG1 (antibody, V domains shown)
VH: B2 VH with S31T, T70S, E90A, M117L
VL: B2 VL with A3V, T17R, M49L, I60V, T72S, S78T, K106H
- IC50, 7TD1 proliferation assay, exp 7.07 [2]: 1.49 pM
- IC50, 7TD1 proliferation assay, exp 29.06 [2]: 0.637 pM
- Rel. Potency, 7TD1, exp 7.07 [2]: 0.91
- Rel. Potency, 7TD1, exp 29.06 [2]: 0.88

B4: 128G3 (germlined variant of 68F2), full-length IgG1 (antibody, V domains shown)
VH: B2 VH with S31T, V69T, W73V, A89P
VL: B2 VL with T13A, M49L, I60V, T76A, S82A, K106H
- IC50, 7TD1 proliferation assay, exp 22.06 (batch 17.06) [2]: 1.34 pM
- IC50, 7TD1 proliferation assay, exp 29.06 (batch 17.06) [2]: 1.07 pM
- IC50, 7TD1 proliferation assay, exp 29.06 (batch 24.06) [2]: 1.46 pM
- Rel. Potency, 7TD1, exp 29.06 (batch 24.06) [2]: 0.38

B5: 127E2 (germlined variant of 68F2), full-length IgG1 (antibody, V domains shown)
VH: B2 VH with S31T, W73V, K83Q, M117Q
VL: B2 VL with T13S, L41P, M49L, I60V, S82A, K106H
- IC50, 7TD1 proliferation assay, exp 22.06 (batch 24.06) [2]: 1.38 pM
- IC50, 7TD1 proliferation assay, exp 29.06 (batch 17.06) [2]: 1.51 pM
- IC50, 7TD1 proliferation assay, exp 29.06 (batch 24.06) [2]: 1.25 pM
- Rel. Potency, 7TD1, exp 29.06 (batch 24.06) [2]: 0.45

B6: 129E11 (germlined variant of 68F2), full-length IgG1 (antibody, V domains shown)
VH: B2 VH with I50M, W73V, M117L
VL: B2 VL with S9L, T13S, M49L, I60V, G103T
- IC50, 7TD1 proliferation assay, exp 7.07 [2]: 1.55 pM
- IC50, 7TD1 proliferation assay, exp 29.06 [2]: 0.857 pM
- Rel. Potency, 7TD1, exp 7.07 [2]: 0.88
- Rel. Potency, 7TD1, exp 29.06 [2]: 0.65

B7: 133A9 (germlined variant of 68F2) (antibody, V domains shown)
VH: B2 VH with S31T, D56E, W73V
VL: B2 VL with S9L, T13S, L41P, K68I, G103T
- IC50, 7TD1 cells [1]: 0.18 pM
- Potency relative to 68F2, 7TD1 cells [1]: 3.66

B8: 126A3 (germlined variant of 68F2), full-length IgG1 (antibody, V domains shown)
VH: B2 VH with S31T, W73V, E90A
VL: B2 VL with T13A, M49L, D62S, S78T, G103R
- IC50, 7TD1 proliferation assay, exp 7.07 [2]: 0.63 pM
- IC50, 7TD1 proliferation assay, exp 29.06 [2]: 0.564 pM
- Rel. Potency, 7TD1, exp 7.07 [2]: 2.16
- Rel. Potency, 7TD1, exp 29.06 [2]: 0.99

B9: Fab 18F8 (Fab, V domains shown)
VH: EVQLVESGGGLVQPGGSLRLSCAASGFTFSRNAMSWVRQAPGKGLEWVSAINSGGGSTSYADSVKGRFTISRDNAKNTLYLQMNSLKPEDTAVYYCAKEGYTGWKDPMYDYWGQGTQVTVSS
VL: QSALTQPSALSVTLGQTAKITCQGGSLGSRYAHWYQQKPGQAPVLVIYDDDSRPSGIPERFSGSSSGGRATLTISGAQAEDEGDYYCQSADTSEHIVFGGGTHLTVLG
notes: Fab
- Ka [3]: 6.18e+07 M⁻¹
- Kd [3]: 16200 pM
- koff [3]: 0.000784 s⁻¹
- kon [3]: 48400 M⁻¹ s⁻¹

B10: Fab 28C6 (Fab, V domains shown)
VH: QVQLVESGGGLVQPGGSLRLSCAASGFTFSNYYMTWVRQAPGKGLEWVSSIYSFSGDTAYADSVKGRFTISRDNAKNTLYLQMNKLKSEDTAVYYCTRDLGGVVVTANGYDYWGQGTQVTVSS
VL: DIVMTQTPSSLSASLGDRVTITCQASQSISTELSWYQQKPGQTPKLLIYGASRLQTGVPARFSGSGSGTSFTLTISGLEAEDLATYYCLQDYSWPYSFGSGTRL
notes: Fab
- Ka [3]: 4.04e+07 M⁻¹
- Kd [3]: 24800 pM
- koff [3]: 0.0025 s⁻¹
- kon [3]: 101000 M⁻¹ s⁻¹

B11: 55E10 (Fab, V domains shown)
VH: B10 VH with K85S, D99N, A107T
VL: DIQMTQSPSSLPTSLGDSVTITCQASQSISDELSWYQQKPGQTPKLLIYGASKLQTGVPSRFSGSGSGTSFTLTISGLEAEDLATYYCLQGYSWPFMFGQGTKVELK
notes: Periplasmic Fab; Suffix 'g1' not explained; also called 55E10g1
- Ka [4]: 2.1e+09 M⁻¹
- Kd [4]: 476 pM
- fold improvement of KD over 28A6 (parental) [4]: 11 fold
- fold improvement of ka over 28A6 (parental) [4]: 1.13 fold
- fold improvement of kd over 28A6 (parental) [4]: 9.78 fold
- koff [4]: 6.88e-05 s⁻¹
- kon [4]: 145000 M⁻¹ s⁻¹
- Ka [5]: 2.62e+09 M⁻¹
- Kd [5]: 382 pM
- fold improvement of KD over 28A6 (parental) [5]: 1.52 fold
- fold improvement of ka over 28A6 (parental) [5]: 0.8 fold
- fold improvement of kd over 28A6 (parental) [5]: 1.88 fold
- koff [5]: 5.59e-05 s⁻¹
- kon [5]: 146000 M⁻¹ s⁻¹
- Ka [6]: 3.18e+09 M⁻¹
- Kd [6]: 315 pM
- fold improvement of KD over 28A6 (parental) [6]: 2.38 fold
- fold improvement of ka over 28A6 (parental) [6]: 0.81 fold
- fold improvement of kd over 28A6 (parental) [6]: 2.92 fold
- koff [6]: 6.09e-05 s⁻¹
- kon [6]: 193000 M⁻¹ s⁻¹

B12: 55A11 (Fab, V domains shown)
VH: B10 VH with K85S, D99N, A107T
VL: B11 VL with K53R, S65R
notes: Periplasmic Fab; Suffix 'd' of the label not explained; also called 55A11d
- Ka [4]: 1.77e+09 M⁻¹
- Kd [4]: 566 pM
- fold improvement of KD over 28A6 (parental) [4]: 9.28 fold
- fold improvement of ka over 28A6 (parental) [4]: 1.13 fold
- fold improvement of kd over 28A6 (parental) [4]: 8.24 fold
- koff [4]: 8.17e-05 s⁻¹
- kon [4]: 144000 M⁻¹ s⁻¹
- Ka [5]: 1.59e+09 M⁻¹
- Kd [5]: 631 pM
- fold improvement of KD over 28A6 (parental) [5]: 0.92 fold
- fold improvement of ka over 28A6 (parental) [5]: 0.55 fold
- fold improvement of kd over 28A6 (parental) [5]: 1.65 fold
- koff [5]: 6.36e-05 s⁻¹
- kon [5]: 101000 M⁻¹ s⁻¹
- Ka [6]: 2.78e+09 M⁻¹
- Kd [6]: 359 pM
- fold improvement of KD over 28A6 (parental) [6]: 2.09 fold
- fold improvement of ka over 28A6 (parental) [6]: 0.79 fold
- fold improvement of kd over 28A6 (parental) [6]: 2.63 fold
- koff [6]: 6.76e-05 s⁻¹
- kon [6]: 188000 M⁻¹ s⁻¹

B13: 55C11 (Fab, V domains shown)
VH: B10 VH with K85S, D99N, A107T
VL: B11 VL with M4L, P12S, T13A, S93R
notes: Periplasmic Fab; Suffix 'f' not explained; also called 55C11f
- Ka [4]: 3.2e+09 M⁻¹
- Kd [4]: 313 pM
- fold improvement of KD over 28A6 (parental) [4]: 16.8 fold
- fold improvement of ka over 28A6 (parental) [4]: 2.23 fold
- fold improvement of kd over 28A6 (parental) [4]: 7.56 fold
- koff [4]: 8.9e-05 s⁻¹
- kon [4]: 285000 M⁻¹ s⁻¹
- Ka [5]: 3.1e+09 M⁻¹
- Kd [5]: 323 pM
- fold improvement of KD over 28A6 (parental) [5]: 1.8 fold
- fold improvement of ka over 28A6 (parental) [5]: 1.1 fold
- fold improvement of kd over 28A6 (parental) [5]: 1.62 fold
- koff [5]: 6.47e-05 s⁻¹
- kon [5]: 201000 M⁻¹ s⁻¹
- Ka [6]: 3.29e+09 M⁻¹
- Kd [6]: 304 pM
- fold improvement of KD over 28A6 (parental) [6]: 2.46 fold
- fold improvement of ka over 28A6 (parental) [6]: 0.96 fold
- fold improvement of kd over 28A6 (parental) [6]: 2.56 fold
- koff [6]: 6.94e-05 s⁻¹
- kon [6]: 228000 M⁻¹ s⁻¹

B14: 48H1 (Fab, V domains shown)
VH: B10 VH with K85S, D99N, A107T
VL: B11 VL with I2V, Q3V
notes: Periplasmic Fab; Suffix 'g2, R4' not explained; also called 48H1g2, R4
- Ka [4]: 1.18e+09 M⁻¹
- Kd [4]: 845 pM
- fold improvement of KD over 28A6 (parental) [4]: 6.21 fold
- fold improvement of ka over 28A6 (parental) [4]: 0.88 fold
- fold improvement of kd over 28A6 (parental) [4]: 7.11 fold
- koff [4]: 9.46e-05 s⁻¹
- kon [4]: 112000 M⁻¹ s⁻¹
- Ka [5]: 1.56e+09 M⁻¹
- Kd [5]: 640 pM
- fold improvement of KD over 28A6 (parental) [5]: 0.91 fold
- fold improvement of ka over 28A6 (parental) [5]: 0.58 fold
- fold improvement of kd over 28A6 (parental) [5]: 1.54 fold
- koff [5]: 6.8e-05 s⁻¹
- kon [5]: 106000 M⁻¹ s⁻¹
- Ka [6]: 2.93e+09 M⁻¹
- Kd [6]: 341 pM
- fold improvement of KD over 28A6 (parental) [6]: 2.2 fold
- fold improvement of ka over 28A6 (parental) [6]: 0.87 fold
- fold improvement of kd over 28A6 (parental) [6]: 2.53 fold
- koff [6]: 7.04e-05 s⁻¹
- kon [6]: 206000 M⁻¹ s⁻¹
